Test results published in publication PMC10493163.

Target: angiotensin-converting enzyme 2 (ACE2), noncovalently adsorbed on (GT)6-SWCNTs (human) (UniProt Q9BYF1)
Assay: other fluorescence titration

Chain of UniProt Q9BYF1 (Q9BYF1 18-805): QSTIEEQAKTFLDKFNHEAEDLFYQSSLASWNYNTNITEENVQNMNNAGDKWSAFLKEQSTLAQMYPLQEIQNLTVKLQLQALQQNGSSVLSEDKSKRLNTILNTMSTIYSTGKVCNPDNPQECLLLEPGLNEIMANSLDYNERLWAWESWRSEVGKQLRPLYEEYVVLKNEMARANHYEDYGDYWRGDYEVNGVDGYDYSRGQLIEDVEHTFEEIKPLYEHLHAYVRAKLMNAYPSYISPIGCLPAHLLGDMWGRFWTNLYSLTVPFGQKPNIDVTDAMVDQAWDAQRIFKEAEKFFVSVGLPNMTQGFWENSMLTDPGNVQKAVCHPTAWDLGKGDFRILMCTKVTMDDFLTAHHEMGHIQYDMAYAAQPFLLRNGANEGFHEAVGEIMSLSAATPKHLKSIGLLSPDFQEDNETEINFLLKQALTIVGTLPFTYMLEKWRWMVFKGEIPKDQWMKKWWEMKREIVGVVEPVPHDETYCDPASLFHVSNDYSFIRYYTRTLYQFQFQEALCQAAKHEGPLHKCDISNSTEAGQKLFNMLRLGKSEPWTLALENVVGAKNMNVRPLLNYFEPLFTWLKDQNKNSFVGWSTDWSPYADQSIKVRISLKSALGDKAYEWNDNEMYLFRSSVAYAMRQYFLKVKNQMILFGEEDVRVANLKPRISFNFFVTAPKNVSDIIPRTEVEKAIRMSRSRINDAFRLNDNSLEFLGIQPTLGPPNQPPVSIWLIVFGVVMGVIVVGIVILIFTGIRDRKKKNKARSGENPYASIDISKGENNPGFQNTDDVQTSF

Which dF/F0 of the 1130 nm SWCNT emission peak after 90 min, 10 mg/L does the source give for “SARS-CoV-1 spike protein receptor-binding domain (domain or fragment)” here?
The dF/F0 of the 1130 nm SWCNT emission peak after 90 min, 10 mg/L was 88.4%.
